“And” between values parts separate entries of the source, which are not always exact repeats. Equal values may be shown once. Read-outs that look alike come from different tables or passages of the source.
What was measured:
[1] = biological target: gld-1 FBEa RNA; test: Electrophoretic mobility shift assay (EMSA), RNA binding; parameters: species or system C. elegans
Experimental: A 3′-Cy5-labeled synthetic RNA was ordered from IDT (gld-1 FBEa, 5′-[…]-3′). The FBF-2 proteins were serially diluted 2-fold from the highest concentration of 10 µM in the buffer used for gel filtration (20 mM HEPES pH 7.4, 150 mM NaCl, and 0.5 mM TCEP). 10 µl of the serially diluted protein samples were mixed with 10 µl RNA (10 nM) in a 2× buffer of 10 mM HEPES pH 7.4, 0.01% (v/v) Tween 20, 0.1 mg/ml BSA, 0.1 mg/ml yeast tRNA, and 2 mM DTT. For experiments in the presence of LST-1, LST-1 proteins at constant concentration were preincubated with FBF-2 at 4 °C for 2 h. The LST-1 concentrations were chosen based on their Kd’s for interaction with FBF-2. The final FBF-2 concentrations ranged from 5000 nM to 0.6 nM, and the LST-1 A or B concentrations were constant at 150 μM or 50 μM, respectively. The protein-RNA mixtures were incubated at 4 °C overnight. The samples were resolved on 10% TBE polyacrylamide gels run at constant voltage (100 V) with 1× TBE buffer at room temperature for 35 min. The gels were scanned and visualized with a Typhoon FLA 9500 imager using the Cy5 channel (excitation wavelength 635 nm). Band intensities were quantified with ImageQuant 5.2 (Cytiva). The data were fit with GraphPad Prism (version 9.2.0) using nonlinear regression with a one-site specific binding model. Mean Kd’s and standard error of the mean (SEM) from three or more technical replicates are reported (Supplementary Table 4). Full scan images for the replicates shown in the main figures and gel images for all replicates are included in a source data file.

[2] = biological target: gld-1 FBEa RNA; test: Surface plasmon resonance, RNA-binding kinetics; parameters: species or system C. elegans
Experimental: Kinetics of FBF-2 binding to the gld-1 FBEa RNA were measured using a 2-channel OpenSPR instrument (Nicoya). A 3′-biotin-labeled synthetic RNA was ordered from Horizon Discovery (gld-1 FBEa, 5′-AUCAUGUGCCAUACA-biotin-3′). The 3′-biotinylated RNA was immobilized on streptavidin-treated biotin sensor chips (Nicoya). All experiments were performed at 20 °C with a buffer of 20 mM HEPES, pH 7.4, 150 mM NaCl, and 2 mM DTT. SPR data were collected using OpenSPR (Nicoya, version 4.3). FBF-2 proteins were injected with a flow rate of 20 µl/min. Data were obtained at five different protein concentrations (25, 50, 100, 200, and 400 nM for wild type RBD + CT; 12.5, 25, 50, 100, and 200 nM for RBD + CT mutants and wild type RBD). Sensor chips were regenerated using 0.05% or 0.1% (v/v) SDS. For each experiment, five binding curves were simultaneously fit using a 1:1 binding model with the TraceDrawer software (Ridgeview Instruments, version 1.9.1). Mean values and standard deviation were calculated from two technical replicates. Despite our efforts, the fit of the binding curves for the association phase of FBF-2 RBD and FBF-2 RBD + CT mutants is poorer than the fit for FBF-2 RBD + CT WT. The appearance of the curves is consistent with the derived kon and koff values, and importantly, the curve fit for the dissociation phase is better.

[3] = Melting temperature of FBF-2 proteins; assay type: physicochemical
Experimental: Mutants of FBF-2 RBD + CT: Y479A (5′-[…]), L610A (5′-[…]), and Loop6A (E592A, D594A, E597A, E599A, E604A, E605A; 5′-[…]) were generated by site-directed mutagenesis with the primers indicated. Plasmid sequences were verified by DNA sequencing (Azenta Life Sciences). Protein variants were expressed and purified like wild type proteins. Melting temperatures of wild type and mutant proteins were assessed by differential scanning […]. Reaction mixtures (total volume of 20 μl) contained ~0.3 mg/ml FBF-2 proteins and Sypro Orange dye (1:1000 dilution) (Sigma). Fluorescent intensity was collected from 25 °C to 95 °C (3 °C increment/min) with a real time PCR instrument (Applied Biosystems™ QuantStudio 7 Flex System) using excitation and emission wavelengths of 470 nm and 586 nm, respectively. Protein Thermal Shift^TM software (Applied Biosystems, version 1.4) was used to analyze protein melting curves and calculate melting temperatures (Tm).

[4] = tested on: LST-1; settings: Y479A mutation; cited from earlier work
[5] = mean ± SD, two technical replicates, 20 °C, pH 7.4, 1:1 model

B1: FBF-2 RBD + CT Y479A: FBF-2 RBD + CT mutated in the R7-R8 loop (Y479A) (protein, UniProt Q09312 164-632, looked up, variant Y479A)
chain: SNNVLPTWSLDSNGEMRSRLSLSEVLDSGDLMKFAVDKTGCQFLEKAVKGSLTSYQKFQLFEQVIGRKDDFLKLSTNIFGNYLVQSVIGISLATNDDGYTKRQEKLKNFISSQMTDMCLDKFACRVIQSSLQNMDLSLACKLVQALPRDARLIAICVDQNANHVIQKVVAVIPLKNWEFIVDFVATPEHLRQICSDKYGCRVVQTIIEKLTADSMNVDLTSAAQNLRERALQRLMTSVTNRCQELATNEYANYIIQHIVSNDDLAVYRECIIEKCLMRNLLSLSQEKFASHVVEKAFLHAPLELLAEMMDEIFDGAIPHPDTGKDALDIMMFHQFGNYVVQCMLTICCDAVSGRRQTKEGGYDHAISFQDWLKKLHSRVTKERHRLSRFSSGKKMIETLANLRSTHPIYELQSSGHDSFKTDYFSTASEHDGPELEKNGIEEGSLMLEPRSNKSSVSVKFSSSGSHGDD
- Kd [1]: 36 nM and 39 nM and 47 nM
- Kd ([1]; no LST-1, mean ± SEM of independent technical replicates (n = 3-5), 4 °C overnight, pH 7.4, Cy5-RNA 5′-AUCAUGUGCCAUAC-3′): 62 nM
- Kd ([1]; no LST-1, replicate 1): 75 nM
- Kd ([1]; no LST-1, replicate 2): 64 nM
- Kd ([1]; no LST-1, replicate 3): 48 nM
- Kd ([1]; pH 7.4): 41 ± 6 nM
- Kd ([2]; derived from on/off rates, mean ± SD, two technical replicates): 12.9 ± 6.4 nM
- koff [2, 5]: 1.18 ± 0.11 x10^-3 s^-1
- kon [2, 5]: 10.2 ± 4.3 x10^4 M^-1 s^-1
- Kd ([2]; replicate 1): 17.4 nM
- kon ([2]; replicate 1): 71900 M⁻¹ s⁻¹
- koff ([2]; replicate 1, read-out: koff): 0.00125 s⁻¹
- Kd ([2]; replicate 2): 8.3 nM
- kon ([2]; replicate 2): 133000 M⁻¹ s⁻¹
- koff ([2]; replicate 2, read-out: koff): 0.0011 s⁻¹
- thermal stability ([3]; in words, vs RBD alone or vs RBD + CT): decreased the thermal stability
- Tm ([3]; mean ± SD, three technical replicates, ~0.3 mg/ml protein, Sypro Orange, 25 to 95 °C, fluorescence): 35.25 ± 0.05 °C
- Tm ([3]; replicate 1): 35.30 °C
- Tm ([3]; replicate 2): 35.30 °C
- Tm ([3]; replicate 3): 35.16 °C
- interaction with LST-1 [4]: disrupts interaction between FBF-2 and LST-1
